Entries after “also recorded” stand apart in the source; their conditions may differ.
Experiments:
Assay type in all cases: in vivo, mice
FGFR2IIIb [1] = target: T1, FGFR2IIIb (Mus musculus, UniProt P21803); assay: pFRS2α immunostaining of bladder urothelium after subcutaneous ligand; details: for onset of pFRS2α staining (initial staining observed) after administration: mouse, in vivo
T1 construct: from tissue; host or cells: bladder urothelium of FVB/N mice (in vivo)
Method: (§1) Uninjured mice were treated with 0.2 mL of 10% DMSO, 40 mg/kg FGF7-p, or […] full length FGF7 (n=2 mice per group, mice were about 25 g in weight) administered by subcutaneous injection. At the indicated times (Tables 1 and 2, FIGS. 1 and 2) bladders were harvested and immunostained for pFRS2α and pAKT, markers of urothelial protection. Immunostaining of bladder tissues from each group was repeated. Tables 1, 3, and 4 show the staining pattern for pFRS2α and pAKT over time in mice treated with full length FGF7.
(§2) After FGF7 binds to FGFR2IIIb, pFRSα appears first followed by pAKT. Activation of pAKT correlates with the anti-apoptotic/cytoprotective effects of FGF7 in the bladder urothelium.
(§3) Mice treated with DMSO control, full length FGF7, or FGF7-p were analyzed for activation of FGFR2IIIb and pAKT. Phosphorylated FRS2α and AKT levels were examined by immunostaining. After administration of full length FGF7, initial pFRS2α staining was observed as early as 15 hours later and pAKT staining was observed by 30 hours and peaked at 48 hours (see Tables 1-4 above). 48 hours after administration of 20 mg/kg or 40 mg/kg FGF7-p samples, strong FRS2α staining was observed.

FGFR2IIIb [2] = target: T1, FGFR2IIIb; assay: pAKT immunostaining of bladder urothelium after subcutaneous ligand; details: for pAKT staining: uninjured mice, full length FGF7 5 mg/kg, FGF7-p 40 mg/kg
Method: as §1, §2, §3
To assess whether pATK expression was also increase in FGF7-p treated mice, bladders were analyzed for pATK staining at 72 hours. To confirm pAKT staining was robust in bladder of FGF7-p of treated mice at 72 hours, additional staining for DMSO and FGF7-p (40 mg/kg) treated animals at 72 hours and staining on old samples from full length FGF7-treated samples (5 mg/kg) at 30 hours, 48 hours and 96 hours (n=2 mice per group) was performed. […] Further, robust pAKT signal was seen throughout the urothelium.

bladder urothelium [3] = assay: cyclophosphamide-induced urothelial injury and apoptosis (H&E, TUNEL)
Method: FVB/N mice were administered subcutaneous doses 5 mg/kg, 20 mg/kg, 40 mg/kg of FGF7-p, 5 mg/kg of full length FGF7, or 10% DMSO alone (vehicle). After 24 hours, 150 mg/kg of cyclophosphamide was administered to the mice. Mice were the sacrificed and bladder tissues examined for signs of urothelial injury at various times.
(§4) Mice were administered two doses of 20 mg/kg of subcutaneous (SQ) FGF7-p (or 10% DMSO vehicle) at 72 hours and 48 hours prior to intraperitoneal (IP) injection of 150 mg/kg cyclophosphamide (n=3 female mice per group). Mice were sacrificed and bladders were harvested 24 hours after cyclophosphamide injection. The bladders were fixed in 4% paraformaldehyde in phosphate buffered saline and embedded in paraffin. The paraffin embedded bladders were then serially sectioned with a microtome. Hematoxylin and eosin staining was performed on the sections.

pAKT = pAKT immunostaining of urothelium after cyclophosphamide; details: two SC doses of 20 mg/kg at 72 and 48 hours prior to cyclophosphamide, 24 hours after cyclophosphamide
pS6 = assay: phosphorylated p70S6 kinase (pS6) immunostaining of urothelium after cyclophosphamide; details: two SC doses of 20 mg/kg at 72 and 48 hours prior to cyclophosphamide; 24 hours after cyclophosphamide; versus DMSO
pBAD = assay: phosphorylated BAD (pBAD) immunostaining of urothelium after cyclophosphamide; details: two SC doses of 20 mg/kg at 72 and 48 hours prior to cyclophosphamide, 24 hours after cyclophosphamide
Method: as §4

bladder urothelium [4] = assay: radiation-induced bladder urothelial apoptosis (TUNEL); details: two doses 20 mg/kg SQ at 72 and 48 hours prior to 10 Gray radiation, one day later
Method: The ability of FGF7p to inhibit radiation injury as assesses. Two doses of FGF7p (20 mg/kg SQ) or 2.5% DMSO/PBS vehicle was administered to anesthetized female mice (N=2) at 72 hours and 48 hours prior to exposing the mice to 10 Gray (1000 rads) radiation. Instead of directly exposing bladders to irradiation, we transurethrally filled bladders with 300 μL of saline and focused the radiation beam over the bladder bulge on the depilated abdominal wall. One day later, we noted many TUNEL+ urothelial apoptotic cells in the vehicle-treated mice (FIG. 4, left panel). […] Thus, similar to KGF, systemic FGF7p inhibited or blocked radiation-induced apoptosis.

[5] = two SC doses of 20 mg/kg at 72 and 48 hours prior to IP 150 mg/kg cyclophosphamide, 24 hours after cyclophosphamide

T1 sequence (P21803 22-707 isoform P21803-2 limits assumed): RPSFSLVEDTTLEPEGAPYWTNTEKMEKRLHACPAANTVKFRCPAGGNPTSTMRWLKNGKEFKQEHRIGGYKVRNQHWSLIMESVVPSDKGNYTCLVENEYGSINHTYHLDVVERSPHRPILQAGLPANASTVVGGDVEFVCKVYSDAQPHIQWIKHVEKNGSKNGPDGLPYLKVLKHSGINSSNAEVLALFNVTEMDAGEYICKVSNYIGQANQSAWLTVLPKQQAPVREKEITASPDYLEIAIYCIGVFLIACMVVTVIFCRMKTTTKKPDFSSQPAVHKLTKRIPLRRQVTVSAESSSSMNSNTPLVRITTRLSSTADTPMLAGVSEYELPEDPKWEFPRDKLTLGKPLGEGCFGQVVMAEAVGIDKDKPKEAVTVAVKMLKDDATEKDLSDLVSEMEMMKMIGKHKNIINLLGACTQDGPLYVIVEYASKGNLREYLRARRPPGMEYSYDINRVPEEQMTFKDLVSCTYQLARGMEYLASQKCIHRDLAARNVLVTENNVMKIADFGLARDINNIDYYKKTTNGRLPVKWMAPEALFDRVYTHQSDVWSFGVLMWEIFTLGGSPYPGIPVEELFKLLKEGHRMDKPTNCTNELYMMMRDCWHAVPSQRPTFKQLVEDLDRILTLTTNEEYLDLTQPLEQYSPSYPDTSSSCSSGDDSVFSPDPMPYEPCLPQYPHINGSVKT

Molecule: YASAKWTHNGGEMFVALNQ (listed as Homo sapiens) [FGF7-p, chemically synthesized 19 amino acid peptide of FGF7, FGFR2IIIb agonist]
- pFRS2α staining (FGFR2IIIb [1]; 24 h after SC dose, uninjured mice, full length FGF7 5 mg/kg, FGF7-p 40 mg/kg): weak and patchy; also recorded: Light/patchy (similar to control)
- pFRS2α staining (FGFR2IIIb [1]; 48 hours after administration of 5 mg/kg): Less, but still significant
- pFRS2α staining (FGFR2IIIb [1]; 48 hours after administration of 20 mg/kg): strong
- onset of pFRS2α staining (initial staining observed) after administration (FGFR2IIIb [1]): delayed
- pAKT staining (FGFR2IIIb [2]; 24 h after SC dose): absent
- pAKT staining (FGFR2IIIb [2]; 48 h after SC dose): absent
- pAKT staining (FGFR2IIIb [2]; 72 h after SC dose): robust
- protection against urothelial apoptosis (bladder urothelium [3]; single SC dose 5, 20 or 40 mg/kg 24 hours before 150 mg/kg cyclophosphamide, at 48 hours, versus DMSO alone): no signs of protection against urothelial apoptosis
- urothelial apoptosis, TUNEL staining (bladder urothelium [3]; [5]): intact and non-apoptotic urothelial cells
- urothelial injury, hematoxylin and eosin staining (bladder urothelium [3]; [5]): almost no urothelial injury
- pAKT urothelial staining (pAKT): strong signal throughout the urothelium
- pS6 urothelial staining (pS6): much stronger staining
- pBAD urothelial staining (pBAD): strong staining
- radiation-induced urothelial apoptosis, TUNEL staining (bladder urothelium [4]): many regions with almost no (middle panel) or minimal urothelial apoptosis

B1: full length FGF7: Fibroblast growth factor 7 (keratinocyte growth factor), full length ligand for FGFR2 IIIb isoform, used as comparator (protein)
chain: CNDMTPEQMATNVNCSSPERHTRSYDYMEGGDIRVRRLFCRTQWYLRIDKRGKVKGTQEMKNNYNIMEIRTVAVGIVAIKGVESEFYLAMNKEGKLYAKKECNEDCNFKELILENHYNTYASAKWTHNGGEMFVALNQKGIPVRGKKTKKEQKTAHFLPMAIT
- onset of pFRS2α staining (initial staining observed) after administration (FGFR2IIIb [1]): ≤ 15 hours
- pAKT staining first observed after administration (FGFR2IIIb [2]; mouse, in vivo): ≤ 30 hours
- peak of pAKT staining after administration (FGFR2IIIb [2]; mouse, in vivo): 48 hours

From US20230272024A1, “FIBROBLAST GROWTH FACTOR 7 PEPTIDE” (University of Florida Research Foundation, Incorporated, priority 2020, published 2023)
